B1: library; numbered along this chain (parent)
chain: MAAAGGARLLRAASAVLGGPAGRWLHHAGSRAGSSGLLRNRGPGGSAEASRSLSVSARARSSSEDKITVHFINRDGETLTTKGKVGDSLLDVVVENNLDIDGFGACEGTLACSTCHLIFEDHIYEKLDAITDEENDMLDLAYGLTDRSRLGCQICLTKSMDNMTVRVPETVADARQSIDVGKTS

Variants of: B1
Assay: scaled log2 fold change in cell abundance, elesclomol vs control (0 = silent mean, 1 = nonsense mean) (scaled log2 ratio); higher = higher viability under elesclomol (loss of FDX1 cuproptosis function)
Settings: glucose 10 mM
[1] = with ABC1 FDX1 KO, elesclomol 5 nM, 14 days
[2] = with HEK293T FDX1 KO, elesclomol 40 nM, 11 days
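Further: variant abundance is its share of total variant reads in each endpoint sample, from next-generation sequencing of the integrated ORF PCR-amplified out of genomic DNA.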

Variant | scaled log2 fold change [1] | scaled log2 fold change [2]
MAAAGGARLLRAASAVLGGPAGRWLHHAGSRAGSSGLLRNRGPGGSAEASRSLSVSARARSSSEDKITVHFINRDGETLTTKGKVGDSLLDVVVENNLDIDGFGACEGTLACSTCHLIFEDHIYEKLDAITDEENDMLDLAYGLTDRSRLGCQICLTKSMDNMTVRVPETVADARQSWDVGKTS | 0.246 | -0.636
MAAAGGARLLRAASAVLGGPAGRWLHHAGSRAGSSGLLRNRGPGGSAEASRSLSVSARARSSSEDKITVHFINRDGETLTTKGKVGDSLLDVVVENNLDIDGFGACEGTLACSTCHLIFEDHIYEKLDAITDEENDMLDLAYGLTDRSRLGCQICLTKSMDNMTVRVPETVADARQSPDVGKTS | -0.0627 | 0.399
MAAAGGARLLRAASAVLGGPAGRWLHHAGSRAGSSGLLRNRGPGGSAEASRSLSVSARARSSSEDKITVHFINRDGETLTTKGKVGDSLLDVVVENNLDIDGFGACEGTLACSTCHLIFEDHIYEKLDAITDEENDMLDLAYGLTDRSRLGCQICLTKSMDNMTVRVPETVADARQSSDVGKTS | 0.197 | 0.0683
MAAAGGARLLRAASAVLGGPAGRWLHHAGSRAGSSGLLRNRGPGGSAEASRSLSVSARARSSSEDKITVHFINRDGETLTTKGKVGDSLLDVVVENNLDIDGFGACEGTLACSTCHLIFEDHIYEKLDAITDEENDMLDLAYGLTDRSRLGCQICLTKSMDNMTVRVPETVADARQSRDVGKTS | 0.265 | -0.46
MAAAGGARLLRAASAVLGGPAGRWLHHAGSRAGSSGLLRNRGPGGSAEASRSLSVSARARSSSEDKITVHFINRDGETLTTKGKVGDSLLDVVVENNLDIDGFGACEGTLACSTCHLIFEDHIYEKLDAITDEENDMLDLAYGLTDRSRLGCQICLTKSMDNMTVRVPETVADARQSVDVGKTS | -0.343 | 0.0591
MAAAGGARLLRAASAVLGGPAGRWLHHAGSRAGSSGLLRNRGPGGSAEASRSLSVSARARSSSEDKITVHFINRDGETLTTKGKVGDSLLDVVVENNLDIDGFGACEGTLACSTCHLIFEDHIYEKLDAITDEENDMLDLAYGLTDRSRLGCQICLTKSMDNMTVRVPETVADARQSMDVGKTS | -0.147 | 0.0752
MAAAGGARLLRAASAVLGGPAGRWLHHAGSRAGSSGLLRNRGPGGSAEASRSLSVSARARSSSEDKITVHFINRDGETLTTKGKVGDSLLDVVVENNLDIDGFGACEGTLACSTCHLIFEDHIYEKLDAITDEENDMLDLAYGLTDRSRLGCQICLTKSMDNMTVRVPETVADARQSQDVGKTS | -0.0255 | 0.28
MAAAGGARLLRAASAVLGGPAGRWLHHAGSRAGSSGLLRNRGPGGSAEASRSLSVSARARSSSEDKITVHFINRDGETLTTKGKVGDSLLDVVVENNLDIDGFGACEGTLACSTCHLIFEDHIYEKLDAITDEENDMLDLAYGLTDRSRLGCQICLTKSMDNMTVRVPETVADARQSNDVGKTS | 0.142 | 0.216
MAAAGGARLLRAASAVLGGPAGRWLHHAGSRAGSSGLLRNRGPGGSAEASRSLSVSARARSSSEDKITVHFINRDGETLTTKGKVGDSLLDVVVENNLDIDGFGACEGTLACSTCHLIFEDHIYEKLDAITDEENDMLDLAYGLTDRSRLGCQICLTKSMDNMTVRVPETVADARQSLDVGKTS | 0.552 | -0.187
MAAAGGARLLRAASAVLGGPAGRWLHHAGSRAGSSGLLRNRGPGGSAEASRSLSVSARARSSSEDKITVHFINRDGETLTTKGKVGDSLLDVVVENNLDIDGFGACEGTLACSTCHLIFEDHIYEKLDAITDEENDMLDLAYGLTDRSRLGCQICLTKSMDNMTVRVPETVADARQSYDVGKTS | -1.49 | 0.141
MAAAGGARLLRAASAVLGGPAGRWLHHAGSRAGSSGLLRNRGPGGSAEASRSLSVSARARSSSEDKITVHFINRDGETLTTKGKVGDSLLDVVVENNLDIDGFGACEGTLACSTCHLIFEDHIYEKLDAITDEENDMLDLAYGLTDRSRLGCQICLTKSMDNMTVRVPETVADARQSTDVGKTS | 0.00283 | -0.626
MAAAGGARLLRAASAVLGGPAGRWLHHAGSRAGSSGLLRNRGPGGSAEASRSLSVSARARSSSEDKITVHFINRDGETLTTKGKVGDSLLDVVVENNLDIDGFGACEGTLACSTCHLIFEDHIYEKLDAITDEENDMLDLAYGLTDRSRLGCQICLTKSMDNMTVRVPETVADARQSIGVGKTS | 0.226 | 0.304
MAAAGGARLLRAASAVLGGPAGRWLHHAGSRAGSSGLLRNRGPGGSAEASRSLSVSARARSSSEDKITVHFINRDGETLTTKGKVGDSLLDVVVENNLDIDGFGACEGTLACSTCHLIFEDHIYEKLDAITDEENDMLDLAYGLTDRSRLGCQICLTKSMDNMTVRVPETVADARQSIEVGKTS | -0.000144 | 0.0611
MAAAGGARLLRAASAVLGGPAGRWLHHAGSRAGSSGLLRNRGPGGSAEASRSLSVSARARSSSEDKITVHFINRDGETLTTKGKVGDSLLDVVVENNLDIDGFGACEGTLACSTCHLIFEDHIYEKLDAITDEENDMLDLAYGLTDRSRLGCQICLTKSMDNMTVRVPETVADARQSIAVGKTS | -0.393 | -0.278
MAAAGGARLLRAASAVLGGPAGRWLHHAGSRAGSSGLLRNRGPGGSAEASRSLSVSARARSSSEDKITVHFINRDGETLTTKGKVGDSLLDVVVENNLDIDGFGACEGTLACSTCHLIFEDHIYEKLDAITDEENDMLDLAYGLTDRSRLGCQICLTKSMDNMTVRVPETVADARQSICVGKTS | 0.369 | -0.227
MAAAGGARLLRAASAVLGGPAGRWLHHAGSRAGSSGLLRNRGPGGSAEASRSLSVSARARSSSEDKITVHFINRDGETLTTKGKVGDSLLDVVVENNLDIDGFGACEGTLACSTCHLIFEDHIYEKLDAITDEENDMLDLAYGLTDRSRLGCQICLTKSMDNMTVRVPETVADARQSIFVGKTS | -0.352 | 0.995

— the supplement of paper PMC12855868
